Measured values published in publication PMC5586343, “t‐Darpp is an elongated monomer that binds calcium and is phosphorylated by cyclin‐dependent kinases 1 and 5” (FEBS Open Bio, 2017).

Biological target: the molecule itself
Experiment: cross-linking; glutaraldehyde 0.1% (v/v) and 1% (v/v), 30 min at 25 °C, then SDS/PAGE; each protein alone and an equimolar mixture of t‐Darpp and Darpp‐32

B1: Darpp‐32 (dopamine‐ and cAMP‐regulated phosphoprotein) (natural protein, human, UniProt Q9UD71-1 1-204, looked up)
chain: MDPKDRKKIQFSVPAPPSQLDPRQVEMIRRRRPTPAMLFRLSEHSSPEEEASPHQRASGEGHHLKSKRPNPCAYTPPSLKAVQRIAESHLQSISNLNENQASEEEDELGELRELGYPREEDEEEEEDDEEEEEEEDSQAEVLKVIRQSAGQKTTCGQGLEGPWERPPPLDESERDGGSEDQVEDPALSEPGEEPQRPSPSEPGT
notes: Darpp‐32, longer isoform of PPP1R1B with 36 additional N-terminal residues compared with t‐Darpp; cDNA amplified from Darpp‐32/pET‐49 and cloned into pET‐28a; source: E. coli BL21 DE3, purified (Ni‐NTA)
With B1 the “stoichiometry N” value was 2.
